This is an account of results in the nanobody polyreactivity screen of Harvey et al. (2022).

This series is described as follows: yeast display, Sf9 membrane polyspecificity reagent, FACS + sequencing; frameworks hold sequencing errors. Summed up: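 Nanobodies from a synthetic yeast display library (Saccharomyces cerevisiae BJ5465), induced 36–48 hours with galactose, were stained 1 hour at 4 °C with 10% biotinylated, detergent-solubilized Sf9 membrane reagent, enriched on streptavidin microbeads, then FACS-sorted. Anti-HA (expression) and streptavidin (reagent binding) fluorescence set low and high (top ~1%) gates. Polyreactivity labels come from the gate of origin. Genes were colony-PCR amplified, MiSeq 2 × 250 sequenced and filtered by CDR length.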
With “QFQLVESGGGLVQAGGSLRLSCAASGRTFSWSAMGWYRQAPGKERELVAAISASGGRTYYADSVKGRFTISRDNANNSVYLQMNSLKPEDTAVYYCAKVVKKIEFDYWGQGTEVTVSS”, the “polyreactivity (PSR sort gate)” value is “high polyreactivity”. Regarding “QFQLVESGGGLVQAGGSLRLSCAASGRTFWSNAMVWYRQAPGKERELVAAISGGARTNYADSVKGRFTISRDNAKNTVYLQMNSLKPEDTEVYFCAATPRYWQSRYDYWGKGTQVTVSS”, the “polyreactivity (PSR sort gate)” value is “high polyreactivity”. In the case of “QFQLVESGGGLVQAGGSLRLSCAASGSIFEPYAMGWYRQAPGKETELVATAITYSGGSTYYADSVKGRFTISRDNAKNTVYLQMNSLKPEDTAVYYCAADDWGDGVYKLDYWGQGTQVTVSS”, the “polyreactivity (PSR sort gate)” value is on record as “low polyreactivity”. With “QFQLVESGGGLVQAGGSLRLSCAASGSIFGVYVMGWSRQGAGKERELVAAITRGASTNYADSVKGRFTISRDNAKNTVYLQMNSLKPEDTAVYYCAAESGNRYEYWGQGTQVTVSS”, the “polyreactivity (PSR sort gate)” value is given as “low polyreactivity”. On to “QFQLVESGGGLVQAGGSLRLSCAASGSIFIPYAMGWYRQAPGKEREFVATITFGAASTYYADSVKGRFTISRDNAKNTVYLQMNSLKREDTAVYYCAAEWRRYEYADSWEYDYWGQGTQVTVSS”, for which the “polyreactivity (PSR sort gate)” value is reported as “low polyreactivity”. In the case of “QFQLVESGGGLVQAGGSLRLSCAASGSIIWWNAMGWYRQAPGKERELVASIGDSTYYADSVKGRFTISRDNAKNTVYLQMNSLKPEDTAVYYCNAEVLNYLVFGYQLGYDYWGQGTQVTVSS”, the “polyreactivity (PSR sort gate)” value was “low polyreactivity”. For “QFQLVESGGGLVQAGGSLRLSCAASGSILDGNTMGWYRQAPGKERELVDAISSLATSTYYADSVKGRFTISRDNAKNTVYLQINSLKPEDTAVYYCAALVRRKRTTSGDDYWGQGTQVTVSS” the value was “high polyreactivity”. For the sequence “QFQLVESGGGLVQAGGSLRLSCAASGSIYRLNTMGWYRQAPGKERELVAAMSRRGGSTYYADSVKGRFTISRDNAKNTVYIQMNSLKPEDTAVYYCSADVTSFRHAPGYEYWGQGTQVTVSS”, the “polyreactivity (PSR sort gate)” value is listed as “high polyreactivity”. Consider “QFQLVESGGGLVQAGGSLRLSCAASGSTFIGYAMGWYRQAPGKERELVAAITGGGRTNYADSVKGRFTISRDNAKNTVYLQMNSLKPEDTAVYYCAARGVSRGYAKPYYSRGDYWGQGTQVTVSS”, for which the “polyreactivity (PSR sort gate)” value is on record as “low polyreactivity”. For “QFQLVESGGGLVQAGGSLRLSCAASGSTFIYNTMGWYRQAPGKERELVATIRRSGGITYYADSVKGRFTISRDNAKNTVYLQMNSLKPEDTAVYYCNAKPNRYSAKIVQYDSWGQGTQVTVSS”, the “polyreactivity (PSR sort gate)” value is reported as “low polyreactivity”.

Turning to “QFQLVESGGGLVQAGGSLRLSCAASGSTFKYYAKGWYRQAPGKERELVAAISARTGSTYYADSVKGRFTISRDNEKNTVYLQMNILKPEDTAVYYCNKLTWRGEVDYWGQGTQVTESS”, the “polyreactivity (PSR sort gate)” value is given as “high polyreactivity”. The result for “QFQLVESGGGLVQAGGSLRLSCAASGSTFRGYTMGWYRQAPGKERELVAAIRSTTGRTYYADSVKGRFTISRENAKNTVYLQMNSLKPEDTAVYYCNKAYPREYYYWGQGTQVTVSS” reads “high polyreactivity”; that for “QFQLVESGGGLVQAGGSLRLSCAASGSTFYTTDMGWYRQAPGKERELVASITSAGNTNYADSVKGRFTISRDNAKNSVYLQMNSLKPEDTAVYYYYYYQYDYWGQGTQVTVSS”, “low polyreactivity”; that for “QFQLVESGGGLVQAGGSLRLSCAASGSTSYRNAMGWYRQAPGKEREFVAAISWSGGSTYYADSVKGRFTISRDNAKNTVYLQMNSLKPEDTADYYSNADAYGTPEFTSYAVRYDYWGQGTQVTVSS”, “low polyreactivity”. Take “QFQLVESGGGLVQAGGSLRLSCAASGYIFVRYTMGWYRQAPGKERELVAAISWGGGSTYYADSVKGLFTISRDNAKNTVYLQMNSLKPEDTAVYYCNNRYIQLYDYWGQGTQVTVSS”: the “polyreactivity (PSR sort gate)” value is recorded as “low polyreactivity”. With “QFQLVESGGGLVQAGGSLRLSCAASGYIFYGYVMGWYRQAPGKERELVAGITYSGGGGTHYADSVNGRFTISRDNAKNTVYLQMNSLKPEDTAVYYCAKADPQLNRTYYSYGMDYWGHGTQVTVSS”, the “polyreactivity (PSR sort gate)” value is “low polyreactivity”. For “QFQLVESGGGLVQAGGSLRLSCAASGYTFRYYSMGWYRQATGKERELVAAISRSGGSTYYADSVKGRFTISRDYAKNTVYLQMYSLKPEDTAVYYCAADYSYRTRGNRYRLDYWGQGTQVTVSS” the value was “high polyreactivity”; for “QFQLVESGGGLVQAGGSLRLSCAASGYTLEYNAMGWYRQAPGKDRELGARIRWSGSSTYYADSVKGRFTISRDNAKNTVYLQMNSLKPEDTAVYYCATRYRRWKYDYWGQGTQVTVSS”, “high polyreactivity”. The result for “QFQLVESGGGLVQAGGSLRLSCAASRYTFTLYAMGCYRQAPGKVRELVAAISWSSGSTYYADSVKGRFTISRDNEKNTVYLQMNSLKPEDTAVYYCNARRFGLTQYYYWGQGTQVTVSS” reads “low polyreactivity”; that for “QFQLVESGGGLVQAGGSLRLSCAATGRIFYKYAMGWYRQAPRKETELVAAISSSGGRTYYADSVKGRFTISRDNAKNTVYLQMNSLKPEDSAVYYCGARIHYPSLPYDYWGQGTQVTVSS”, “low polyreactivity”. On to “QFQLVESGGGLVQAGGSLRLSCAPSGGTFGSNAMGWYRQAPGKERELVAAISTTGGTTYYADSVKGRFTISRDNAKNTVYLQMNSLKPEDTAVYYCAKDGYVYGDWYTYAYVYWGQGTQVTVSS”, for which the “polyreactivity (PSR sort gate)” value was “low polyreactivity”. As to “QFQLVESGGGLVQAGGSLRLSCPAYGSNLSRYAMGWYRQSPGKVRELVATITRRGGSTFYADSVKGRFTISRDNAKNTVYLQMNSLKPDDTADYYCAVGRLFWGQGTQVTVSS”, the “polyreactivity (PSR sort gate)” value was “low polyreactivity”. Regarding “QFQLVESGGGLVQAGGSLRLSSAASGFIFAHNAMGWYRQAPGKERELVDAITSSGGSTYYADSVKGRFSISRDNAKNTVYLQMNSLKPEDTAVYYCNAYTYARRGYDYWGQGTQVTVSS”, the “polyreactivity (PSR sort gate)” value is reported as “high polyreactivity”.

Consider “QFQLVESGGGLVQAGGSLRLSSAASGRTFLSYTMVWYRQAPGKERQFVAAITTSGGSTNYADSVKGRFTISRDNAKNTVYLQMNSLKAEDTAVYYCADEWSVYFYDPRSDYWGQGNQVTVSS”, for which the “polyreactivity (PSR sort gate)” value is reported as “high polyreactivity”. For the sequence “QFQLVESGGGLVQAGGSLRLTCAASGSIFLWYAMGWYRQAPGKERELVAVITSSGGTTYYADSVKGRFTISRDNAKNTVYLQMNCLKPADTAVYYCAADFYRHPPGSLTKLYYYWGQGTQVTVSS”, the “polyreactivity (PSR sort gate)” value is on record as “low polyreactivity”. Consider “QFQLVESGGGLVQAGGTLRLSCPATGLIFAYNTMGWYRHAPGKERELVAGITSGGSTYYADSVKGRFTISRDNAKNTVYLHLNSLKPEDSAVYYCAAAYRNWSVSFGYWGQGTQVTVSS”, for which the “polyreactivity (PSR sort gate)” value is “high polyreactivity”. Take “QFQLVESGGGLVQAGVSLRLSCAASGRIFSHYAMGWYRQAPGKERELVAASSSGGITYYADSVKGRFTISLDNAKNTVYLQMNCQKPEDTAVYYCAAVRRRGTTYDYWGQGTQVTVSS”: the “polyreactivity (PSR sort gate)” value is “high polyreactivity”. The result for “QFQLVESGGGLVQAVGSLRLSCAASGITFYTYAMGWYRHAPGKESDFVSAITRSGGSTYYADSVKGRFTFSRDNAKNTVYLQMIILKPEDTAVYYCAVDIYFWSYGWWGPYDYWGQGTQVTVSS” reads “low polyreactivity”; that for “QFQLVESGGGLVQEGGSLRLSCASSGRTFVSNAMGWYRQAPGKERELVAAISRRSGSTYYADSVKGRFTISRDNAKNTVYLQMNSLKPEDTAVYYCGAVLTRYGYDYWGQGTQVTVSS”, “high polyreactivity”; that for “QFQLVESGGGSVQAGGSLRLSCAASGSTFDYNMGWYRQAPGKERELVATIRSDGRTNYADSVKGRFTISRDNAKNTVYLQMNSLKPEDTAVYYCAADVYAYVDDFGGYDYWGQGTQVTVSS”, “low polyreactivity”. As for “QFQLVESGGGVVQAGGRLRLSCAASGSNFPRYAMGWYIQAPGKERELVAAISSSGGDTYYADSVKGLYTISRDNAKNTVYLQMNSLKPEDTAVYYCAALGAFPSLEFDYCGQGTQVTVSS”, the “polyreactivity (PSR sort gate)” value is recorded as “low polyreactivity”. As to “QFQLVESGRGLVQAGGSLRLSCAASGRTFSAYAIGWNSQAPVKQRELVAAITRGGSTNYADSVKGRFTISRDNAMNTLYLQMNRLKPEDTAVYYCAARRSSRKDFGYWGQGTQVTVSS”, the “polyreactivity (PSR sort gate)” value is reported as “high polyreactivity”. For the sequence “QFQLVESGRGLVQAGVSLRLSCASSGFTFILYAIGCYRQATGKERELVAGISNGGSTYYADSVKGRFTISRDNAKNTVYFQMNSLKPEDTAVDYCNRDLTFYLYVSGNYFGQGTQVTVSS”, the “polyreactivity (PSR sort gate)” value is given as “low polyreactivity”.

Regarding “QFQLVESGRGLVQAVGSHRLRCAASGSILLKYAMGWYRQATGKEMELVAAITYRGASTHYADSVKGRFTISRDNAKNTVYLQMNSLKPEDTAVYYCAARGWVYYASEMDYWGQGTQVTVSS”, the “polyreactivity (PSR sort gate)” value is given as “low polyreactivity”. For “QFQLVESRGGLVQAGGSLRLNCASSGSIFYSYAIGWYRQAPGKERELVAAITRGGSTYYADSVKGRFTISRDNAKNTVYLQMNSLKREDTAVYYCAAEFYSYKYPDYDYWGQGTQVTVSS”, the “polyreactivity (PSR sort gate)” value is listed as “low polyreactivity”.

In the case of “QFQLVESVGGLVQAGGSLRISCAASGIIFYSYALGWYREAPGKERELVATISFSGDNTYYADSVKGRFTISRDNAKNTVYLQMNSLKPEDTAVYYCAKDLGYRGRYNYWGQGTQVTVSS”, the “polyreactivity (PSR sort gate)” value is listed as “low polyreactivity”. Regarding “QFQLVESVGGLVQAGGSLRLSCAASGFTFTAYAMGWYRQAPGTERELVAAISSGGSTYYADSVKGRFTISRDNAKNTVYLQMNSLKPEDTAVYYCAAVGVYTVKREYWGQGTQVTVSS”, the “polyreactivity (PSR sort gate)” value is on record as “low polyreactivity”. On to “QFQLVESVGGLVQAGGSLRLSCAASGITFPANAMGWYRQAPGKERELVAAISSSGGSTYYADSVKGRFTISRDNAKNTVYLQMNSLKPEDTAVYYCAAYYGPSRSLYYYWGQGTQVTVSS”, for which the “polyreactivity (PSR sort gate)” value is listed as “high polyreactivity”. On to “QFQLVESVGGLVQAGGSLRLSCAASGRTFGNYAMGWYRQAPGKERELVAAISRSGGSTSYADSVKGRFTISRDNAKNTVYLQMNSLKPVDTAVYYCNAYFRGPRDYQYDYWGQGTQVTVSS”, for which the “polyreactivity (PSR sort gate)” value is given as “high polyreactivity”.

Consider “QFQQVESGGGLVQAGGSLRLSCAATGSIFSYTMGWYRQAPGKERELVAAITSGGITYYADSVKGRFTISRDNAKNTVYLQMNSLKPEDSAVYYCNAYYPYGLASFYYWGQGTQVTVSS”, for which the “polyreactivity (PSR sort gate)” value was “low polyreactivity”.

In the case of “QFQRVESGGGLVQAGGSLRLTCAASGIIFVYNAMGWFRQATGKERELVAAINWRGDGTYYADSVKGRFTISRDNAKNTVYLQMNSLKQEDTAVYYCNAVRFRPNSHYRPVGYDYWGQGTQVTVSS”, the “polyreactivity (PSR sort gate)” value is on record as “low polyreactivity”.
